2 molecules from article PMC3531502 (PLoS Biology, 2012) can be followed below.

First the molecules themselves.
T1: HET-s (full-length) (Podospora anserina, UniProt Q03689 1-289)
T1 construct: also called unlabeled monomeric full-length HET-s; HET-s prion
T1 sequence (looked up): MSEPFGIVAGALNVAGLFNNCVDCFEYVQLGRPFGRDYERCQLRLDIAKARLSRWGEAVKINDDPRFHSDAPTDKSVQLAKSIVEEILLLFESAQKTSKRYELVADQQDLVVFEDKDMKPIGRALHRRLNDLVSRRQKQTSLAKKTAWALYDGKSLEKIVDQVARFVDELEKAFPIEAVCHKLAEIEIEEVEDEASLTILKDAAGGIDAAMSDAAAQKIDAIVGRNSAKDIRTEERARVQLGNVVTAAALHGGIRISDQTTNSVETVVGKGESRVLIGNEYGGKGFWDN

B1: HET-s(218-289), prion-forming domain of HET-s (domain or fragment, Podospora anserina, UniProt Q03689 218-289, looked up)
chain: KIDAIVGRNSAKDIRTEERARVQLGNVVTAAALHGGIRISDQTTNSVETVVGKGESRVLIGNEYGGKGFWDN
notes: also called HET-s PFD; HET-s(218-289) amyloid seeds
B2: HET-S (full-length, residues 1-289) (natural protein, Podospora anserina, UniProt B2ACC7 1-289, looked up)
chain: MSEPFEIVAGALGVAGLFNNCVACFEYVQLGRHFGRDYERCQLRLDIAKVRLSRWGEAVQINDDPRFHSSAPIDKSVQLAKSIVEEILLLFESAQKTSKRYELVADQQDLVVFEDKDMKPIGRALHRRLKDLVSRRQKQTSLAKKTAWALYDGKSLEKIVDQVAGFVDELEKAFPIEAVCHKLAENEIEEVEDEASLTILKDAAGGIDAAMSDAAAQKIDAIVGRNSAKDIRTEKRARVQLGNVVTAAALHGEIRISDQTTNSVETVVGKGESKVLIGNEYGGKGFWDN
notes: also called HET-S protein; recombinant HET-S

Data set [1] concerns the molecule itself. In words: solid-state NMR (PAIN 13C-15N pol).
In data set [2] the target is B2. Briefly: solid-state NMR (PAIN 13C-15N pol). The note with it: both partners purified.
Data set [3] deals with T1, HET-s (full-length). In words: solid-state NMR (NCA 2D and 3D co). To be noted: both partners purified.
Data set [4] deals with the molecule itself. Briefly: solid-state NMR (NCA 2D and 3D co).

As for B1, the binding result in data set [1] and in data set [2] was “binds” in each case.

For B2, the binding result in data set [3] and in data set [4] was “binds” each time.
